From publication PMC9927573

What was measured:
[1] = target: Zika virus envelope glycoprotein E, as displayed on recombinant F2A virus-like particles (Zika virus (strain BeH818995)); assay: SDS-PAGE with Western blot; fractions of the two-step chromatographic purification of F2A VLPs (HiTrap Capto Q, then HiScreen Capto Core 700 flow-through); immunoblot of E
[2] = target: Zika virus envelope glycoprotein E, as displayed on recombinant F2A virus-like particles (Zika virus (strain BeH818995)); assay: non-reducing SDS-PAGE with Western blot; cell culture medium of transfected 293T cells, 72 and 96 h posttransfection at 37°C, 20 μg of total protein per sample; nonreducing conditions; E detected with monoclonal 4G2 antibody

Zika virus envelope glycoprotein E, as displayed on recombinant F2A virus-like particles (natural protein)
stoichiometry N [1]: 2
stoichiometry N [2]: 2
